# Substitutions are numbered along the chain they refer to.
# B1: aptscl 6 (ssDNA)
# DNA: CGTACGGTCGACGCTAGCTGGAAGGGTGGGGGCGGGGGGTCCTCGCCTCGAACGTACGCACGTGGAGCTCGGATCC
# B2: aptscl 3 (ssDNA)
# DNA: CGTACGGTCGACGCTAGCTGTTGTACATCGCCTTACGCACGTGGAGCTCGGATCC
# B3: aptscl 8 (ssDNA)
# DNA: CGTACGGTCGACGCTAGCCGGCGAAATTGCTACCACGTGGAGCTCGGATCC
# B4: aptscl 22 (ssDNA)
# DNA: CGTACGGTCGACGCTAGCTGGGTTTATCGACTAGTTCCACGTGGAGCTCGGATCC
# B5: aptscl 51 (ssDNA)
# DNA: CGTACGGTCGACGCTAGCTGGGGGTAGGGGGTCCTTGGCTACGGTGATTCGGATGTGACACGTGGAGCTCGGATCC
# B6: aptscl 9 (ssDNA)
# DNA: CGTACGGTCGACGCTAGCTGGGGGTAGGGGGACCCTGGCTAGTTAGTCACCGTTTCGACACGTGGAGCTCGGATCC
# B7: aptscl 29 (ssDNA)
# DNA: CGTACGGTCGACGCTAGCCGGAGACCTGAGGTTCACGTGGAGCTCGGATCC
# B8: aptscl 12 (ssDNA)
# DNA: CGTACGGTCGACGCTAGCCGTTGACTCGTTGCTACACGTGGAGCTCGGATCC
# B9: aptscl 5 (ssDNA)
# DNA: CGTACGGTCGACGCTAGCTGTTGTTCATCGACTTGACGCACGTGGAGCTCGGATCC
# B10: aptscl 1 (ssDNA)
# DNA: B9 DNA with G20C, C32T, T33C, T34C, G35T
# B11: aptscl 32 (ssDNA)
# DNA: CGTACGGTCGACGCTAGCTGTGTTAATCGCCGTACCTCCACGTGGAGCTCGGATCC
# B12: aptscl 2 (ssDNA)
# DNA: CGTACGGTCGACGCTAGCCAGCCAAAGACAGAGATGCACGTGGAGCTCGGATCC
# Biological target: T1, sclerostin (SOST) (Homo sapiens, UniProt Q9BQB4 SEQ:1-190)
# Test: ELONA; PBS, 1 mM MgCl2, RT
# Conditions: tags: His6 (stated for the SELEX protein); ELONA used purified recombinant human sclerostin
# T1 sequence (Q9BQB4 24-213): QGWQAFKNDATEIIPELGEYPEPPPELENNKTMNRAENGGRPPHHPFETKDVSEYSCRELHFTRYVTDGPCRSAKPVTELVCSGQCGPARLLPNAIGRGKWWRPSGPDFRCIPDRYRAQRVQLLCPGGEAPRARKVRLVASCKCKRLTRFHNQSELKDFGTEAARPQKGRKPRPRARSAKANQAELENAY
row,Binder,Kd [nM]
1,"GCTAGCTGTTGTACATCGCCTTACGCACGTG (ssDNA, 2'-OMe at first four (GCTA) and last four (CGTG) nucleotides; 3' idT) [modified aptscl 3-5]",0.54
2,"CGGGGTGTGGGTTCGTCGTTAGCTTGATTTGGCAGCTGCCC (ssDNA, 2'-OMe at first four (CGGG) and last four (GCCC) nucleotides; 3' idT) [modified aptscl 56]",6.55

# Biological target: T1, sclerostin (SOST)
# Test: ELONA; PBS, 1 mM MgCl2, RT
# Conditions: tags: His6 (stated for the SELEX protein); ELONA used purified recombinant human sclerostin
# Remark: another data set of the same source
# Protocol: (§1) An Enzyme-linked OligoNucleotide Assay (ELONA) was performed to determine the binding affinity of the aptamer candidates to sclerostin (Drolet, Moon-McDermott et al. 1996). Similarly, an Enzyme-linked ImmunoSorbent Assay (ELISA) was performed to determine the binding affinity of anti-sclerostin antibody to human sclerostin (Engvall and Perlmann 1971). 160 ng purified recombinant human sclerostin was coated to 96-well microtiter plate in 100 μl PBS by incubating at 4° C. overnight. The plate was then blocked with blocking buffer (PBS, 0.1% Tween 20 and 1% BSA) for 1 h at room temperature and washed with SELEX B&W buffer (PBS, 1 mM MgCl₂, 0.1% Tween 20 and 0.1% BSA) for 4 times. The aptamer candidates were denatured at 95° C. for 10 min and rapidly cooled on ice for 10 min before use. Appropriate concentrations of biotinylated aptamers/antibody were added into each well, then added SELEX B&W buffer to 100 μl and incubated for 45 min at room temperature with continuous gentle shaking. After binding, the plate was washed with SELEX B&W buffer for 4 times to remove non-specific and very weak binding, followed by washing with PBST+0.1% BSA for 4 times. 100 μl streptavidin-HRP/goat anti-human IgG Fc-HRP (1:10000 dilute into PBST+0.1% BSA) was added to each well and incubated for 30/60 min and washed with PBST+0.1% BSA for 4 times. 50 μl TMB was added to each well and incubated for 20 min. The reaction was stopped by adding 50 μl 2 M H₂SO₄. Absorbance at 450 nm was measured with microplate reader (Stoltenburg, Krafcikova et al. 2016). Data was analyzed with Origin software (OriginLab, Northampton, Mass.). A non-linear curve fitting model Hyperbl was used to plot is the binding curve. Equation of Hyperbl model is y=P1*x/(P2+x) and P2 is the Kd value.
# (§2) Binding affinity and in vitro inhibition potency were performed using the same protocols in previous studies.
row,Binder,Kd [nM]
1,GCTAGCTGTTGTACATCGCCTTACGCACGTGGAGCTC (ssDNA) [aptscl 3-3],0.2
2,GTCGACGCTAGCTGTTGTACATCGCCTTACGCACGTGGAGCTCGGATCC (ssDNA) [aptscl 3-1],0.86
3,CGTACGGTCGACGCTAGCTGTTGTACATCGCCTTACGCACGTGGAGCTC (ssDNA) [aptscl 3-2],0.52
4,GCTAGCTGTTGTACATCGCCTTACGCACGTG (ssDNA) [aptscl 3-5],0.22
5,GTCGACGCTAGCTGTTGTACATCGCCTTACGCACGTG (ssDNA) [aptscl 3-4],0.22

# Biological target: T2, sclerostin (SOST), expressed from plasmid in MC3T3-E1 cells (UniProt Q9BQB4 SEQ:1-190)
# Test: cell_activity; TOP-Wnt luciferase reporter, MC3T3-E1
# Conditions: not given
# Protocol: (§3) MC3T3-E1 cells were seeded in 24-well plates and cells were transfected with corresponding reporter plasmid (100 ng), Wnt3a plasmid (800 ng) and sclerostin plasmid (800 ng) as necessary using FuGENE HD transfection reagent (Promega) in the following day. 10 hours after transfection, culture medium was changed to fresh medium and cells were treated with aptamers/antibody. 24 hours after treatment, each well of cells was lysed with 100 μl passive lysis buffer and 20 μl was taken for analysis. The Luciferase Assay Reagent II and Stop & Glo Reagent were prepared and added automatically by SpectraMax i3x Multi-Mode Detection Platform (Molecular Device) according to the manufacturer's protocol (Promega) and data was analyzed accordingly (Grentzmann, Ingram et al. 1998, McNabb, Reed et al. 2005).
# as §2
# T2 sequence (Q9BQB4 24-213): as the sequence (Q9BQB4 24-213) above
row,Binder,EC50 [µg/mL]
1,GCTAGCTGTTGTACATCGCCTTACGCACGTG (ssDNA) [aptscl 3-5],28.4

# Biological target: T1, sclerostin (SOST)
# Test: ELONA; PBS, 1 mM MgCl2, 0.1% Tween 20, 0.1% BSA, RT
# Conditions: tags: His6 (stated for the SELEX protein); ELONA used purified recombinant human sclerostin
# Protocol: as §1, with “100 μl streptavidin-HRP/goat anti-human IgG Fc-HRP (1:10000 dilute into PBST+0.1% BSA) was added to each well and incubated for 30/60 min and washed with PBST+0.1% BSA for 4 times. 50 μl TMB was added to each well and incubated for 20 min. The reaction was stopped by adding 50 μl 2 M H₂SO₄.” left out, “A non-linear curve fitting model Hyperbl was used to plot is the binding curve. Equation of Hyperbl model is y=P1*x/(P2+x) and P2 is the Kd value.” left out
row,Binder,Kd [nM]
1,CGGGGTGTGGGTTCGTCGTTAGCTTGATTTGGCAGCTGCC (ssDNA) [aptscl 56],43.1

# Biological target: T2, sclerostin (SOST), expressed from …
# Test: cell_activity; TOP-Wnt luciferase reporter, MC3T3-E1
# Conditions: not given
# Remark: another data set of the same source
# Protocol: as §3
# The inhibition to sclerostin was dose dependent and the response was stable when the concentrations of aptscl 56 and 6 reached to 25 and 47.4 μg/ml, respectively. While treated with antibody, the response was still not stable with the concentration increasing to 20 mg/ml. Furthermore, the inhibition potency of aptscl 56, aptscl 6 and aptscl 3 was analyzed with non-linear curve fitting.
row,Binder,EC50 [µg/mL]
1,B1,36.8
2,CGGGGTGTGGGTTCGTCGTTAGCTTGATTTGGCAGCTGCC (ssDNA) [aptscl 56],19.7
3,B2,18.2

# Biological target: T1, sclerostin (SOST)
# Test: ELONA; PBS, 1 mM MgCl2, RT; Table 2 gives 0.02 nM
# Conditions: tags: His6 (stated for the SELEX protein); ELONA used purified recombinant human sclerostin
# Protocol: as §1, with “100 μl streptavidin-HRP/goat anti-human IgG Fc-HRP (1:10000 dilute into PBST+0.1% BSA) was added to each well and incubated for 30/60 min and washed with PBST+0.1% BSA for 4 times. 50 μl TMB was added to each well and incubated for 20 min. The reaction was stopped by adding 50 μl 2 M H₂SO₄.” left out, “A non-linear curve fitting model Hyperbl was used to plot is the binding curve. Equation of Hyperbl model is y=P1*x/(P2+x) and P2 is the Kd value.” left out
row,Binder,Kd [nM]
1,B2,0.04

# Biological target: T1, sclerostin (SOST)
# Test: ELONA; PBS, 1 mM MgCl2, RT
# Conditions: tags: His6 (stated for the SELEX protein); ELONA used purified recombinant human sclerostin
# Remark: another data set of the same source
# Protocol: as §1
row,Binder,Kd [nM]
1,CCCAGACGAGACACCTCATGCTTTTCCCCGGGGGAGGGGTAT (ssDNA) [aptscl 132],42.2
2,B1,4.2
3,B3,0.005
4,B4,0.76
5,B5,62.2
6,B6,3.4
7,B7,0.28
8,B8,0.005
9,B9,0.005
10,B10,0.02
11,B11,0.18
12,B12,0.006

# Biological target: T2, sclerostin (SOST), expressed from …
# Test: cell_activity; TOP-Wnt luciferase reporter; stated as inhibition potency
# Conditions: not given
row,Binder,EC50 [µg/mL]
1,"GCTAGCTGTTGTACATCGCCTTACGCACGTG (ssDNA, 2'-OMe at first four (GCTA) and last four (CGTG) nucleotides; 3' idT) [modified aptscl 3-5]",11
2,"CGGGGTGTGGGTTCGTCGTTAGCTTGATTTGGCAGCTGCCC (ssDNA, 2'-OMe at first four (CGGG) and last four (GCCC) nucleotides; 3' idT) [modified aptscl 56]",14
